Experiments:
[1] = target: T1, human BCMA on cells (endogenous, on multiple myeloma and lymphoma cell lines) (human, UniProt Q02223 1-184); assay: cell-based or functional assay
T1 sequence: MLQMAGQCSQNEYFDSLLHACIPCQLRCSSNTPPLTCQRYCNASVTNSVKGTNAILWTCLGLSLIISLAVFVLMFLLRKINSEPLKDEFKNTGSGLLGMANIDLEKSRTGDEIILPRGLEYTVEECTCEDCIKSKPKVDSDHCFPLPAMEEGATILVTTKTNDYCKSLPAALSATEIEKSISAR

[2] = target: T2, mouse BCMA-MFC (BCMA with C-terminal mFc tag) (mouse); assay: SPR, Biacore, mAb captured by anti-hFc, 25 C
T2 construct: Tested at 30 nM only
T2 chain: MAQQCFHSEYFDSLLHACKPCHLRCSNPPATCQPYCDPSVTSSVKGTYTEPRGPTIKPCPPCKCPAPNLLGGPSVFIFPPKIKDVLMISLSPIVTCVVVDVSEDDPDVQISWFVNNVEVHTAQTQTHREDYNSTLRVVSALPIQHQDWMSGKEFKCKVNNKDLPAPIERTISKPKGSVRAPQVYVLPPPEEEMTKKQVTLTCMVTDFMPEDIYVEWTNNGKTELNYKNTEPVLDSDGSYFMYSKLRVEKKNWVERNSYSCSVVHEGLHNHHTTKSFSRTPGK
Protocol: (§1) The CM5 Biacore sensor surface was derivatized by amine coupling with a monoclonal mouse anti-human Fc antibody (GE, #BR-1008-39) to capture purified anti-BCMA mAbs and anti-BCMA×anti-CD3 bispecific mAbs. All Biacore binding studies were performed in a buffer composed of 0.01M HEPES pH 7.4, 0.15M NaCl, 3 mM EDTA, 0.05% v/v Surfactant P20 (HBS-ET running buffer). […] Antigen samples were then injected over the anti-BCMA and anti-BCMA×anti-CD3 bispecific mAbs captured surfaces at a flow rate of 30 μL/minute. Antibody-reagent association was monitored for 5 minutes while dissociation in HBS-ET running buffer was monitored for 10 minutes. All of the binding kinetics experiments were performed at 25° C. Kinetic association (kₐ) and dissociation (kd) rate constants were determined by fitting the real-time sensorgrams to a 1:1 binding model using Scrubber 2.0c curve fitting software. Binding dissociation equilibrium constants (KD) and dissociative half-lives (t½) were calculated from the kinetic rate constants as: […]

[3] = target: T3, human BCMA-MMH (extracellular domain of human BCMA with C-terminal myc-myc-hexahistidine tag) (human); assay: SPR, Biacore, mAb captured by anti-hFc, 25 C
T3 construct: Monomeric antigen; the entry holds the ectodomain and the myc-myc-His tag; also called hBCMA.mmh; hBCMA.mmH
T3 chain: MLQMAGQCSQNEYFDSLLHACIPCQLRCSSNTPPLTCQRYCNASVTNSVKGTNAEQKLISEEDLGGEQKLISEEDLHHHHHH
Protocol: as §1

[4] = target: T4, monkey BCMA-MMH (monkey BCMA with C-terminal myc-myc-hexahistidine tag) (monkey); assay: SPR, Biacore, mAb captured by anti-hFc, 25 C
T4 construct: The words 'extracellular domain' stand before human BCMA in the sentence and are read as applying to the monkey construct too; also called mfBCMA.mmh
Protocol: as §1

[5] = target: T5, human BCMA-MFC (extracellular domain of human BCMA with C-terminal mFc tag) (human); assay: SPR, Biacore, mAb captured by anti-hFc, 25 C
T5 construct: also called hBCMA.mFc
T5 chain: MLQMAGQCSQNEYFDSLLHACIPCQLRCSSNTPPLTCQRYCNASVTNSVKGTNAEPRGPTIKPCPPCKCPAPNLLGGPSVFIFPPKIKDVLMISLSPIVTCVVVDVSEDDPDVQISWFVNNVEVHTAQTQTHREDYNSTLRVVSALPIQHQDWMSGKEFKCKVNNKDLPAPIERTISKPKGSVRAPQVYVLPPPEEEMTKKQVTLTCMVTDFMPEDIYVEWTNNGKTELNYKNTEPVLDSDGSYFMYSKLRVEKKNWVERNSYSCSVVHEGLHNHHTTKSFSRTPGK
Protocol: as §1

[6] = target: T6, monkey BCMA-MFC (monkey BCMA with C-terminal mFc tag) (monkey); assay: SPR, Biacore, mAb captured by anti-hFc, 25 C
T6 construct: also called mfBCMA.mFc
Protocol: as §1

[7] = target: T1, human BCMA on cells (endogenous, on …); assay: cell-based or functional assay; remark: listed apart in the source
[8] = target: T1, human BCMA on cells (endogenous, on …); assay: cell-based or functional assay; remark: listed apart in the source
[9] = target: T1, human BCMA on cells (endogenous, on …); assay: cell-based or functional assay; remark: listed apart in the source

Binder | MFI fold change over cells incubated in media only, NCI-H929, 18 h with 67 nM antibody, then stained with the same antibody [1] [fold] | MFI fold change over cells incubated in media only, NCI-H929, 18 h with 667 nM antibody, then stained with the same antibody [1] [fold] | 30 nM mfBCMA.mFc Bind (RU) (mouse BCMA-MFC by the table's title) [2] | Kd [2] [nM] | koff [2] [s⁻¹] | kon [2] [M⁻¹ s⁻¹] | t½ [2] [min] | 90 nM hBCMA.mmh Bind (RU) [3] [RU] | Kd [3] [nM] | koff [3] [s⁻¹] | kon [3] [M⁻¹ s⁻¹] | t½ [3] [min] | 30 nM hBCMA.mFc Bind (RU) [5] [RU] | Kd [5] [nM] | koff [5] [s⁻¹] | kon [5] [M⁻¹ s⁻¹] | t½ [5] [min] | 30 nM mfBCMA.mFc Bind (RU) [6] [RU] | MFI fold change over cells incubated in media only, Molp8, 18 h with 67 nM antibody, then stained with the same antibody [7] [fold] | MFI fold change over cells incubated in media only, Molp8, 18 h with 667 nM antibody, then stained with the same antibody [7] [fold] | further results
mAb16711 (antibody, V domains shown, Anti-BCMA monoclonal antibody; human Fc (captured by anti-human Fc)) VH: QVQLVESGGGVVQPGRSLRLSCAASGFTFSTYGIHWVRQAPGKGLEWVAVILHDGSSNYYAESVKGRFIISRDNSKNTLYLQMNSLRAEDTALYYCTKRYSEAAGPNWFDPWGQGTLVTVSS VL: DIQMTQSPSSVSASVGDRVTITCRASRGISSWLAWYQQKPGKAPKLLIHAASSLQSGVPSRFSGSGSGTDFTLTISSLQPEDFATYYCQQAISFPFTFGPGTKVDIK | 2.8 | 2.1 | 90 | 1.02 | 0.0011 | 1.07e+06 | 10.5 | 22.2 | 1.73 | 0.00347 | 2.01e+06 | 3.3 | 114 | 0.103 | 0.00019 | 1.85e+06 | 60.8 | 0.9 | 3.5 | 3 | 90 nM mfBCMA.mmh Bind (RU) [4]: -0.5 RU; binding result [6]: no binding (tested: 30 nM); MFI fold change over cells incubated in media only, U266, 18 h with 67 nM antibody, then stained with the same antibody [8]: 2.2 fold; MFI fold change over cells incubated in media only, U266, 18 h with 667 nM antibody, then stained with the same antibody [8]: 2.2 fold
mAb16716 (antibody, V domains shown, Anti-BCMA monoclonal antibody; human Fc (captured by anti-human Fc)) VH: not shown VL: DIQMTQSPSSVSASLGDRVTITCRASQGISSWLAWYQRKPGKAPKLLIYAASSLQSGVPSRFSGSGSGADFTLTISSLQPEDFATYYCQQAKSVPFTFGPGTKVDIK | – | – | 33.4 | 18.8 | 0.00385 | 205000 | 3 | 26.4 | 3.56 | 0.00299 | 841000 | 3.9 | 120 | 0.0968 | 8.35e-05 | 862000 | 138 | – | – | – | 90 nM mfBCMA.mmh Bind (RU) [4]: 0.8 RU; binding result [4]: no binding (tested: 90 nM)
mAb16732 (REGN4514) (antibody, V domains shown, Anti-BCMA monoclonal antibody; human Fc (captured by anti-human Fc)) VH: EVQLVESGGGLVQPGRSLRLSCAASGFTFDDYAMHWVRQAPGKGLEWVSGISWNSGNMGYADSVKGRFTISRDNAKNSLFLQMHSLRAEDTAFYYCAKVRLTAFDFWGQGTLVTVSS VL: DIQMTQSPSSLSASVGDRVTITCRTSQSIGNYLNWFQQKPGKAPKLLIYTASSLQNGVPSRFTGSGSGTDFTLTISSLQPEDFVIYYCQQSFSTPYTFGQGTKLEIK | – | – | 110 | 0.677 | 0.000269 | 397000 | 43 | 25.3 | 2.69 | 0.00285 | 1.06e+06 | 4.1 | 124 | 0.0422 | 4.53e-05 | 1.07e+06 | 255 | 40.3 | – | – | Kd [6]: 14.7 nM; koff [6]: 0.00724 s⁻¹; kon [6]: 492000 M⁻¹ s⁻¹; t½ [6]: 1.6 min
mAb21581, bivalent anti-BCMA antibody (parent of REGN5458) (antibody, V domains shown) VH: EVQLVESGGGLVQPGGSLRLSCAASGFTFSNFWMTWVRQAPGKGLEWVANMNQDGSEKYYVDSVKGRFTISRDNAKSSLYLQMNSLRAEDTAVYYCARDREYCISTSCYDDFDYWGQGTLVTVSS VL: not shown | 1.2 | 1.4 | – | – | – | – | – | – | – | – | – | – | – | – | – | – | – | – | 2.3 | 3.7 | MFI fold change over cells incubated in media only, MM1S, 18 h with 67 nM antibody, then stained with the same antibody [9]: 7.3 fold; MFI fold change over cells incubated in media only, MM1S, 18 h with 667 nM antibody, then stained with the same antibody [9]: 7 fold; MFI fold change over cells incubated in media only, U266, 18 h with 67 nM antibody, then stained with the same antibody [8]: 1.8 fold; MFI fold change over cells incubated in media only, U266, 18 h with 667 nM antibody, then stained with the same antibody [8]: 2.3 fold
mAb16747 (REGN4515) (antibody, V domains shown, Anti-BCMA monoclonal antibody; human Fc (captured by anti-human Fc)) VH: QVQLVESGGGLVKPGGSLRLSCAASGFTFSDYYISWIRQAPGKGLEWVSYISSSGSSIKYADSVKGRFTISRDNAKNSLYLQMNSLRAEDTAVYYCAREGGNYGMDVWGQGTTVTVSS VL: DIQMTQSPSSVSASVGDRVTITCRASQGINNWLVWYQQKPGKAPKLLIYAATSLQSGVPSRFSGSGSGTDFTLTISSLQPEDFATYYCQQANSFPPTFGQGTKLEIK | 1.8 | 2.1 | 108 | 4.42 | 0.00418 | 947000 | 2.8 | 31.4 | 2.84 | 0.00247 | 869000 | 4.7 | 146 | 0.0633 | 8.95e-05 | 1.41e+06 | 129 | 101 | 2.2 | 0.6 | Kd [6]: 3.37 nM; koff [6]: 0.00716 s⁻¹; kon [6]: 2.13e+06 M⁻¹ s⁻¹; t½ [6]: 1.6 min; MFI fold change over cells incubated in media only, U266, 18 h with 67 nM antibody, then stained with the same antibody [8]: 1.5 fold; MFI fold change over cells incubated in media only, U266, 18 h with 667 nM antibody, then stained with the same antibody [8]: 1.7 fold
